Measurements from the DeepSol protein solubility set.

Experiment: soluble on expression in E. coli; label from the status in PepcDB or PDB records

| Sequence | soluble on expression in E. coli |
| --- | --- |
| ELLPEIFRQTVEHAPIAISITDLKANILYANRAFRTITGYGSEEVLGKNESILSNGTTPRLVYQALWGRLAQKKPWSGVLVNRRKDKTLYLAELTVAPVLNEAGETIYYLGMHRDTSELH | soluble |
| ELQAIHEKVKTEHAALSTEVVHLRQRTEELLRCNEQQAAELETCKEQLFQSNMERKELHNTVMDLRGNIRVFCRIRPPLESEENRMCCTWTYHDESTVELQSIDAQAKSKMGQQIFSFDQVFHPLSSQSDIFEMVSPLIQSALDGYNICIFAYGQTGSGKTYTMDGVPESVGVIPRTVDLLFDSIRGYRNLGWEYEIKATFLEIYNEVLYDLLSNEQKDMEIRMAKNNKNDIYVSNITEETVLDPNHLRHLMHTAKMNRATASTAGNERSSRSHAVTKLELIGRHAEKQEISVGSINLVDLAGSESPKTSTRMTETKNINRSLSELTNVILALLQKQDHIPYRNSKLTHLLMPSLGGNSKTLMFINVSPFQDCFQESVKSLRFAASVNSCKMTKAKRNRYLNNSVANSSTQSNNSGSFDK | soluble |
| ELSENFKKLMKYPYRPCTCTRCIEEQRVSAWFDERFNRSMQPLLTAKNAHLEEDTYKWWLRLQREKQPNNLNDTIRELFQVVPGNVDPLLEKRLVSCRRCAVVGNSGNLKESYYGPQIDSHDFVLRMNKAPTEGFEADVGSKTTHHFVYPESFRELAQEVSMILVPFKTTDLEWVISATTTGRISHTYVPVPAKIKVKKEKILIYHPAFIKYVFDRWLQGHGRYPSTGILSVIFSLHICDEVDLYGFGADSKGNWHHYWENNPSAGAFRKTGVHDGDFESNVTTILASINKIRIFKGR | soluble |
| EMKVLVPDTSVIVDGRLTQYLERLKEKVKVVVPEAVVAEIEHQANAGKAIGHTGLEELKKLREIANEGKILLEFYGERPDLWQIRRAKSGEIDNMVREVARELNGVLVTGDQIQRDIAIAKGIDVIYLEAKREPRMRLEDFFDEE | not soluble |
| ESEPQPEPCPGRAGAAARARWCPQPRPLVLLSLGALEFVSLSQQAFQICPVFVVCGLYQDGNSNKSFLLRSWCLHPEGTVCASSPERKDLPEALGNDPGTPGQRGLKLFGKAAGLLGKMAMAPSPSLVQVYTSPAAVAVWEWQDGLGTWHPYSATVCSFIEQQFVQQKGQRFGLGSLAHSIPLGQADPSLAPYIIDLPSWTQFRQDTGTMRAVRRHLFPQHSAPGRGVVWEWLSDDGSWTAYEASVCDYLEQQVARGNQLVDLAPLGYNYTVNYTTHTQTNKTSSFCRSVRRQAGPPYPVTTIIAPPGHTGVACSCHQCLSGSRTGPVSGRYRHSMTNLPAYPVPQHPPHRTASVFGTHQAFAPYNKPSLSGARSAPRLNTTNAWGAAPPSLGSQPLYRSSLSHLGPQHLPPGSSTSGAVSASLPSGPSSSPGSVPATVPMQMPKPSRVQQALAGMTSVLMSAIGLPVCLSRAPQPTSPPASRLASKSHGSVKRLRKMSVKEATPKPEPEPEQVIKNYTEELKVPPDEVCVLGPWLPLFLFGNNSTWKGHPPHLA | soluble |
| ETVLADRFERLVELVTMMGDQGELPIAMALANVVPCSQWDELARVLVTLFDSRHLLYQLLWNMFSKEVELADSMQTLFRGNSLASKIMTFCFKVYGATYLQKLLDPLLRIVITSSDWQHVSFEVDPTRLEPSESLEENQRNLLQMTEKFFHAIISSSSEFPPQLRSVCHCLYQVVSQRFPQNSIGAVGSAMFLRFINPAIVSPYEAGILDKKPPPIIERGLKLMSKILQSIANHVLFTKEEHMRPFNDFVKSNFDAARRFFLDIASDCPTSDAVNHSLSFISDGNVLALHRLLWNNQEKIGQYLSSNRDHKAVGRRPFDKMATLLAYLGPPEH | soluble |
| EVDPFVELHVRAMGLAEVYGKMNGYMPMNYEYNVGRVETGIAKALGIKPSRDYEGIVAESQKLAAKAPPRPPVLCPGCPHSASFYAIRRVVDELGDAALPS | not soluble |
| EVENNFPCSLYKDEIMKEIERESKRIKLNDNDDEGNKKIIAPRIFISDDKDSLKCPCDPEMVSNSTCRFFVCKCVERRAEVTSNNEVVVKEEYKDEYADIPEHKPTYDKM | soluble |
| EVKLVESGGGLVKPGGSLKLSCAASGFTFNNYVMVWLRQTPEKRLEWVASISRGGSTYYPDSVKGRFTISRDNARNILYLQMSSLRSEDTAMYYCVRGTTIVAGDVWGAGTTVTVSSAKTTPPSVYPLAPGSAAQTNSMVTLGCLVKGYFPEPVTVTWNSGSLSSGVHTFPAVLQSDLYTLSSSVTVPSSTWPSETVTCNVAHPASSTKVDKKIVPRDC | soluble |
| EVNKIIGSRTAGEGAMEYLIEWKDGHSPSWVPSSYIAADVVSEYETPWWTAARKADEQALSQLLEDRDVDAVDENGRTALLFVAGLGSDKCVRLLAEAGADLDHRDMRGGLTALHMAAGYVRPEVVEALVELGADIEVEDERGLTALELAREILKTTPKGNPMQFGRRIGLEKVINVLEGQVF | soluble |
| EVQLVESGGDLVKPGGSLKLSCAASGFTFSSYGMSWIRQTPDKRLEWVATISSGGSYTYYPDSVKGRFTISRDNAKNTLYLQMSSLKSEDTAMFYCARQTTMTYFAYWGQGTLVTVSAAKTTPPSVYPLAPGSAAQTNSMVTLGCLVKGYFPEPVTVTWNSGSLSSGVHTFPAVLQSDLYTLSSSVTVPSSPRPSETVTCNVAHPASSTKVDKKIEPA | soluble |
| EVVRLGDVLELCQYGLSVPLKDKGKYPVIRMDEIVNGYVVTDIAKYADLDEETFKNFKLEKGDVLFNRTNSLELVGRTGIFLLDGYYVFASYLIRLRPKHEILHPHFLTFYLIFSQSRLKQLATVAVHQANINATNLKKFKIPLPPLPEQQKIAEILSTV | soluble |
| EVVVIGYGTAKRKDITGSVATVNAEALTVVPVASATEALTGKMAGVQITTTEGSPDAEMKIRVRGGGSITGDNTPLFIVDGFPVESISDIPASDIEDMTVLKDASSTAIYGSRGANGVILVTTKSGK | not soluble |
| EVYALEESRDVYLSDLDWLNATHGDDTKSKIVQKNHPFTPGNNNQSTKISLKMEDGSISEFEKGLGTIAGSPSTITYDISGAGVTKFFSYLGIDRSANPINEQYAKVDKIEVVVDGKVIYSTINQFPNGLTYETPAIKVDLNIPENAKRLQLKSYAGEKTWGDEVVYADAKFTAKGDFVN | soluble |
| EWVAPTLSQKAENIKAAAINGKISTGNTGLWLKEKNSIINVREMLPDHTLLGIKIWARNDKNELAEAVEADSAVLNSDGSWQLKNIRRSTLGEDKVEVSIAAEENWPISVKRNLMDVLLVKPDQMSVGELTTYIRHLQNNSQNTRIYAIAWWRK | not soluble |
| EYSYQYNLRVEPGVSHQRANIGIDYQGMDWIIGPNYTAEQARIILRLDDQTRYVLQPEKRHYPVRVMNMTEPAILSLWHGDYYLTLGDKVGTNAYAIKVQ | not soluble |
| FAVSSELSACGRARTYRVEGQLFYGSVEDFMAAFDFREPLERVTIDVSRAHIWDISSVQALDMAVLKFRREGAEVRIVGMNEASETLVDRLALHDRPGALDRLTAH | not soluble |
| FCKELPRPELPYSEMSAIGSLIQALPASCALHLANSSAVRYAQLYSLPDTVEVCCNRGTSGIEGSLSTAIGYAAASKKLNFVVIGDLSFFYDMNALWNNHFGSNLRILLLNNGGGEIFHTLPGLEMSGTSHRFVTAVHKTSAKGWAEERGFLYQEVQDEKQLDEAMKTFTQPELLTQPVIMEVFTNKNKDARILKDYYHQLKN | not soluble |
| FDIALTGREGKKIGAAFIVGDSEEVLKRSHQIILNPYEGHEEAHRNILDRRNWESIKEFALLDGVFVIDETGIVRAAGRYLDVDGKNIDIEKGLGGRHVSAAAISRDTVAISVTVSESGGVLRVYKDAKETICMESLQPASRYV | not soluble |
| FFSNAEVAERLAYPQLIEALRIGLAKPCSAPLRNCHALPAQASLLQMPVWQAGAGIGVKLVTVFPGNGARGLPAVAAVFALFDGEDGRPLALLEASELTARRTACSSALAADYLARDDARRLLVVGCGTLAAHMVRAHACVRDYRHIDIWGRDPAKAAALAARLREEGYPARAADGLRAAVEAADCVSCVTTSREALVRGAWLKPGVHLDLVGAFLPSMRETDVLAVARARVVVDTRAGALEEAGDLLQAIAEGAIGREAISTELRDLLSGAGRRGDPGEITLFKSVGYALEDLVAARRVV | not soluble |
| FHPHTKGSQILMDLSHKAVKRQASFCNAITFSNRPVLIYEQVRLKITKKQCCWSGALRLGFTSKD | not soluble |
| FLNTISTKDFKQKMADKTTGFVYVGRPTCEDCQAFQPILKKELEKRQPDQKMAYYNTDKASEKSRDDMIALLKKMDIDSVPTMVYLKDGKVASTYAATDEPAKLTNWMNKVSG | not soluble |
| FNHPASAPYIQELATICQQLAQRLQRPVRLLEVGTRTGRAAESLLAQLNAGQIEYVGLEQSQEMLLSARQRLAPWPGARLSLWNADTLAAHAHSADIIWLNNALHRLLPEDPGLLATLQQLAVPGALLYVMEFRQLTPSALLSTLLLTNGQPEALLHNSADWAALFSAAGFNCQH | not soluble |
| FNKELDPVQKLFVDKIREYRTKRQTSGGPVDAGPEYQQDLDRELFKLKQMYGKADMNTFPNFTFEDPKFEVVEKPQS | soluble |
| FRKIAQAYNLDLLVHHANAQLKQLVRRYRLKRGGSMLGLLVMDTEMGDELRSVHSLSGGETFLVSLALALGLASMASSTLRIESLFIDEGFGSLDPESLQLAMDALDGLQAQGRKVGVISHVQEMHERIPVQIRVRRQGNGLSTI | not soluble |
| FTSNKDERRWMVQCGSFRGAEQAETVRAQLAFEGFDSKITTNNGWNRVVIGPVKGKENADSTLNRLKMAGHTNCIRLAAGG | soluble |
| FYHDYTVTQDELLKDSSDALKKEFLKILDKAIKRLILMANGDTIVIPLSGGYDSRAIATMLKKNGYENVILYTYGKPDSTEVRVAREVAKNLEFEWIFVEQNEDIVDPDYPERDFFLEFYKYAFNHVSTIHLQDFFVFKHLHDNSVIPKNSIIVPGHSGDFLGGSHLRKLPIPKSKRDVFNTILIKHYIVNEHIKLSPYVVKKINEYLNSFSEHTLPYSLDDNWNMKERQAKFIVNSNRTYEFFGYRHAIPLWDLELVEFFRRVPLEYKTKEVIYSDALRESVFKDFGVVLSQKDVANTMALEFYHRIFHSMEIFRHIRYFAEKN | not soluble |
| GACDNDTEPGGTAVEKMAGDWWVTVNAFIDGKEVEDPFGAGHLQMSTYNTASNSETEMWLDDLGNFWEYKLKVNVNYAARTFSTTGFVDNVTYESKVKITDGKVLEKAATTPSGMPADSIVYMVQFDDDEDGLTYKVSGFRRTGFPADDF | soluble |
| GAKPRNLNVSFQGCGMDSLSVRAMDTDTLTQVKEKILEAFCKNVPYSQWPRAEDVDLEWFASSTQSYILRDLDDTSVVEDGRKKLNTLAHYKIPEGASLAMSLIDKKDNTLGRVKDLDTEKYFHLVL | soluble |
| GAMDAAVAPEERHLSKMQQNGYENPTYKFFEQMQN | soluble |
